# Results as given in PMC6625990, “Structural underpinnings of Ric8A function as a G-protein α-subunit chaperone and guanine-nucleotide exchange factor” (Nature Communications, 2019).
# B1: bovine Ric8A1–492 [bovine] / Gαt333–350 [modified: biotin on the N-terminus (in the BLI assays); biotin on the N-terminus (in the BLI assays)] [not stated] (parent)
# chain 1: MEPRAVADALETGEEDVVMEALRAYNRENSQSFTFDDAQQEDRKRLAKLLVSVLEQGLPPSRRVIWLQSIRILSRDRSCLDSFTSRRSLQALACYAGISASQGSVPEPLNMDVVLESLKCLCNLVLSSPVAQALAAEAGLVVRLAERVGLCRQSSFPHDVQFFDLRLLFLLTALRTDVRQQLFQELQGVRLLTRALELTLGMTEGERHPELLPPQETERAMEILKVLFNITFDSIKREVDEEDAALYRHLGTLLRHCVMLAAAGDRTEELHGHAVNLLGNLPVKCLDVLLTLEPHEGSLEFLGVNMDVIRVLLSFMEKRLHQTHRLKESVAPVLSVLTECARMHRPARKFLKAQVLPPLRDVRTRPEVGELLRNKLVRLMTHLDTDVKRVAAEFLFVLCSESVPRFIKYTGYGNAAGLLAARGLMAGGRPEGQYSEDEDTDTDEYKEAKASINPVTGRVEEKPPNPMEGMTEEQKEHEAMKLVNMFDKLSRH
# chain 2: DAVTDIIIKENLKDCGLF
# Columns and labels:
# [1] = variants of: B1; test: BLI (steady-state); details: with Gαt333–350 [modified: biotin on the N-terminus (in the BLI assays)
# [2] = variants of: B1; test: BLI (steady-state binding curve); details: with Gαt333–350 [modified: biotin on the N-terminus (in the BLI assays), biotinylated Gαt333–350 coupled to a streptavidin biosensor
Kd [1] [nM],Kd [2] [nM],Variant
> 10000,> 10000,chain 1 A173W
1800,1900,chain 1 F169R
